# Laboratory results as given in patent publication US20250367237A1 (TENEOBIO, published 2025).
# T1: human c-Kit, GNNK- isoform, expressed on SEM cells (human, UniProt P10721 26-976)
# T1 chain: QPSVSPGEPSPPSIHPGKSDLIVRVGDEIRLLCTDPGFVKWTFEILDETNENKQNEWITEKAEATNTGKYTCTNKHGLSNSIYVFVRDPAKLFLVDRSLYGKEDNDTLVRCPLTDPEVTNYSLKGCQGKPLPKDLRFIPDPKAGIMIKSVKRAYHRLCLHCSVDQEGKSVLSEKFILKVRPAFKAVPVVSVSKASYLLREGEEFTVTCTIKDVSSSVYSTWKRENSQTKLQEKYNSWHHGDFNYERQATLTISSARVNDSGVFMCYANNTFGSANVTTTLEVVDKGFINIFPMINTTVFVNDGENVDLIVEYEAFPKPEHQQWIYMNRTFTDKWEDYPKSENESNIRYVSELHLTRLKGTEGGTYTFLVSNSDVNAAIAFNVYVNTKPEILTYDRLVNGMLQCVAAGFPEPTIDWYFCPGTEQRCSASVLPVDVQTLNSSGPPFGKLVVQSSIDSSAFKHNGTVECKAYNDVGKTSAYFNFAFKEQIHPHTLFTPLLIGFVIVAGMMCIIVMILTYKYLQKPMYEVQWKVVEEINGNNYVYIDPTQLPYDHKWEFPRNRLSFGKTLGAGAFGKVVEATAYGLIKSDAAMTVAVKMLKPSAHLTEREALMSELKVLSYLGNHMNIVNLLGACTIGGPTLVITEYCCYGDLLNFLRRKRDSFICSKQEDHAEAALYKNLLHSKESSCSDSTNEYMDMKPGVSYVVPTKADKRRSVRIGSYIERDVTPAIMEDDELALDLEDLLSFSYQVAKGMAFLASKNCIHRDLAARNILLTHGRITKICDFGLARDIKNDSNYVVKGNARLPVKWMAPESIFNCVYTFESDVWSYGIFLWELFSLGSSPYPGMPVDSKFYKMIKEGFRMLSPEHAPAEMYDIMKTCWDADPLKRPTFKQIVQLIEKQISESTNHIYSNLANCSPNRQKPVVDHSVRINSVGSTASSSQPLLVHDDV
# B1: anti-c-Kit single domain antibody Clone ID # 408366 (VHH)
# VHH: EVQLLESGGGLVQPGGSLRLSCAASGLTISTYAMSWVRQAPGKGLEWVSAISTGGSSTYYADSVKGRFTISRDNSKNTLYLQMNSLRAEDTAVYYCATGYDSSGHYYGGFDYRGQGTLVTVSS
# notes: also called F06 family
# B2: anti-c-Kit single domain antibody Clone ID # 407921 (VHH)
# VHH: EVQLLESGGGLVQPGGSLRLSCAASGFTFDSYAMSWVRQAPGKGLEWVSAISVRGGSTYYADSVKGRFTISRDNSKNTLYLQMNSLRAEDTAVYSCATGYDPSGHYYGGFDYRGQGTLVTVSS
# notes: also called F06 family
# B3: anti-c-Kit single domain antibody Clone ID # 407922 (VHH)
# VHH: EVQLLESGGGLVQPGGSLRLSCAASGLTISSYAMSWVRQAPGKGLEWVSAISTGGSRTYYADSVKGRFTISRDNSKNTLYLQMNSLRAEDTAVYFCATGYDSSGHYYGGFDYRGQGTLVTVSS
# notes: also called F06 family
# B4: anti-c-Kit single domain antibody Clone ID # 408389 (VHH)
# VHH: EVQLLESGGGLVQPGGSLRLSCAASGFTFDSYAMSWVRQAPGEGLEWVSAISTGGGSTYYADSVKGRFTISRDNSKNMLFLQMNSLRAEDTAVYSCATGYDSSGYYYGGFDYRGQGTLVTVSS
# notes: also called F06 family
# B5: anti-c-Kit single domain antibody Clone ID # 408198 (VHH)
# VHH: QLQLQESGPGLVKPSETLSLTCTVSGGSISSSSYYWGWIRQPPGKGLEWIGSIDYNGGTYNNPSLKSRVTISVDTSKNQFSLKLSYVTAADTAVYYCARQNPRRYASGASDYRGQGTLVTVSS
# notes: also called F18 family
# Columns and labels:
# [1] = molecular target: T2, recombinant human c-Kit (Acro Biosystems, #CD7-H52H4) (human, UniProt P10721 26-520); experiment: BLI (Octet HTX), antibody on AHC sensors, c-Kit in solution, 1:1 model
# T2 construct: Bought protein; It was loaded on Ni-NTA sensors for binning, so it probably carries a His tag; also called antigen
# Description: Table E3 summarizes affinity and epitope bin information for example anti-c-Kit single domain antibodies of the present disclosure. The affinity of each single domain antibody to recombinant human c-Kit (Acro Biosystems, #CD7-H52H4) was measured by Bio-layer interferometry (BLI) using an Octet HTX. AHC (Anti-hIgG Fc Capture) sensors were used to immobilize test antibody at 5 μg/mL. After baseline readings, sensors were dipped into antigen solutions (starting at 500 nM followed by a 7-point, 2-fold dilution series). Association and dissociation were measured for 180 and 240 seconds, respectively. Data were analyzed with Octet Data Analysis v11.0 HT (ForteBio) using a standard 1:1 binding model. Epitope bins for the single domain antibodies were determined by an in-tandem competition BLI binding experiment using an Octet HTX. The antigen (5 μg/mL) was loaded on the sensor Ni-NTA sensor, followed by a baseline in kinetic buffer. The antigen coated sensor was then dipped into a saturating concentration Antibody 1. A second baseline was then set for 300 seconds. The antigen-Antibody 1 complex was dipped into Antibody 2 solution for 180 seconds and then allowed to dissociate.
# [2] = molecular target: T3, human c-Kit expressed on NOMO-1 cells (human, UniProt P10721 26-976); experiment: flow cytometry cell binding dose curve, NOMO-1 cells expressing human c-Kit
# T3 construct: Endogenous c-Kit of the NOMO-1 AML cell line
# Description: (§1) The single domain antibodies were tested at a starting concentration of 50 nM, followed by 5-fold serial dilutions for an 8-point dose curve. All washes and dilutions of cells, antibodies, and reagents were performed using flow buffer (lx phosphate buffered saline (PBS), 1% bovine serum albumin (BSA), and 0.1% NaN₃). Cells were pelleted and resuspended at 1×10⁶ cells/mL in flow buffer. Then, 50 μL cells were combined with 50 μL of test antibody and incubated 30 minutes at 4° C., followed by two wash steps with flow buffer. Cells were then resuspended in 50 μL PE-conjugated secondary diluted to 1.25 μg/mL (Southern Biotech #2042-09) and incubated for 20 minutes at 4° C. After two wash steps, cells were resuspended in flow buffer and analyzed using a BD Celesta system. PE mean fluorescence intensity was plotted as a fold over background (cells incubated with secondary detection antibody only).
# (§2) To determine cell binding EC50 values for example anti-c-Kit single domain antibodies of the present disclosure, cell binding dose curves were performed on SEM cells expressing human GNNK+c-Kit isoform, SEM cells expressing human GNNK− c-Kit isoform, and NOMO-1 cells expressing human c-Kit. The single domain antibodies were tested at a starting dose of 50 nM, followed by 5-fold serial dilutions for an 8-point dose curve as described in Example 2. The transformed data were plotted as an xy-graph using the non-linear regression curve fit (available in GraphPad Prism 8.4.3) to obtain the EC50 values (nM), which are summarized in Table E2.
# [3] = molecular target: T4, human c-Kit, GNNK+ isoform, expressed on SEM cells (human, UniProt P10721 26-976); experiment: flow cytometry cell binding dose curve, SEM cells expressing human GNNK+ c-Kit
# T4 construct: also called SEM (GNNK+); CD117
# Description: as §1, §2
# [4] = molecular target: T1, human c-Kit, GNNK- isoform, expressed …; experiment: flow cytometry cell binding dose curve, SEM cells expressing human GNNK- c-Kit
# [5] = molecular target: T3, human c-Kit expressed on NOMO-1 cells; experiment: flow cytometry, antibody supernatant on NOMO-1 cells expressing c-Kit, PE secondary
# Description: (§3) Pelleted cells were resuspended in flow buffer (lx phosphate buffered saline (PBS), 1% bovine serum albumin (BSA), and 0.1% NaN₃) at 1.25×10⁶ cells/mL. Antibody-containing supernatants were diluted 1:5 in flow buffer and 40 μL cells plus 10 μL diluted antibody supernatant were incubated for 30 minutes at 4° C. Cells were washed with flow buffer and resuspended in 50 μL phycoerythrin (PE)-conjugated secondary antibody (Southern Biotech #2042-09) diluted in flow buffer to 1.25 μg/mL and incubated for 20 minutes at 4° C. After two wash steps, cells were resuspended in flow buffer and analyzed using a Guava easyCyte 8HT system. Table E1 summarizes the target binding activity of the anti-c-Kit single domain antibodies as fold over background MFI signal.
# [6] = molecular target: T4, human c-Kit, GNNK+ isoform, expressed …; experiment: flow cytometry, antibody supernatant on SEM cells expressing human c-Kit GNNK+, PE secondary
# Description: as §3
# [7] = molecular target: T1, human c-Kit, GNNK- isoform, expressed …; experiment: flow cytometry, antibody supernatant on SEM cells expressing human c-Kit GNNK-, PE secondary
Binder,Kd [1] [nM],EC50 [2] [nM],EC50 [3] [nM],EC50 [4] [nM],fold over background MFI signal [5] [fold over background],fold over background MFI signal [6] [fold over background],fold over background MFI signal [7] [fold over background]
B1,4.71,0.39,0.08,0.09,43.2,945,1760
B2,2.77,0.26,0.03,0.03,30.5,814,1750
B3,–,–,–,–,31.1,829,1740
B4,–,–,–,–,43.9,934,1790
B5,7.28,0.32,0.25,0.58,45.7,388,103
